From paper PMC9709061

Target: HSP90β (human) (UniProt P08238)
Assay: cryo-EM structure; HSP90–CDC37–BRAF^V600E complex incubated with PP5 D274N, purified by SEC, cross-linked with 1 mM BS3; one sample gave three classes: HCK (3.4 Å), HCK-P open (4.2 Å), HCK-P closed (3.9 Å); PP5 modelled by rigid-body docking

## HSP90β, P08238 1-724 (natural protein; phosphorylation at Ser226 and Ser255 found by mass spectrometry; phosphorylation at Ser226 and Ser255 found by mass spectrometry; other documents disagree on this pair)
  stoichiometry N: 2
